Experimental findings from patent publication US20240132578A1 are described below.

For assay [1], the target named is aMLV envelope (negative control). The assay is described as follows: cell-based or functional assay.
Assay [2] has as its target HIV-1 Env of pseudovirus MGRM-F1-013 (clade F) (HIV-1). The assay is described as follows: cell-based or functional assay.
Assay [3] has as its target HIV-1 Env of isolate 92UG005 (Clade D) (HIV-1). Nature of the assay: cell-based or functional assay.
Assay [4] has as its target HIV-1 Env of isolate IAVI-C18 (Clade C) (HIV-1). Nature of the assay: cell-based or functional assay.
In assay [5] the target is HIV-1 Env of isolate 92UG024 (Clade D) (HIV-1). The assay is described as follows: cell-based or functional assay.
In assay [6] the target is HIV-1 Env of isolate 93UG077 (Clade A) (HIV-1). Nature of the assay: cell-based or functional assay.
Assay [7] concerns the target HIV-1 Env of isolate 92BR020 (Clade B) (HIV-1). The assay is described as follows: cell-based or functional assay.
In assay [8] the target is HIV-1 IAVI_C22 envelope protein (Env) on pseudotyped virus (HIV-1 strain IAVI C22). Nature of the assay: cell-based or functional assay.
Assay [9] has as its target HIV-1 JR-CSF envelope protein (Env) on pseudotyped virus (HIV-1 isolate JR-CSF) (UniProt P20871). Nature of the assay: cell-based or functional assay.
Assay [10] deals with HIV-1 NL43 envelope protein (Env) on pseudotyped virus (HIV-1 strain NL43). Nature of the assay: cell-based or functional assay.
Assay [11] has as its target HIV-1 MGRM-AG-005 Env (HIV-1). Nature of the assay: cell-based or functional assay.
Assay [12] has as its target HIV-1 Env of isolate MGRM-F1-014 (pseudovirus) (HIV-1). The assay is described as follows: cell-based or functional assay.
Assay [13] has as its target HIV-1 envelope glycoprotein (Env) of isolate MGRM-Chronic-B-010, on pseudovirus (HIV-1). Nature of the assay: cell-based or functional assay.
Assay [14] has as its target HIV-1 envelope glycoprotein (Env) of isolate JR-FL, on pseudovirus (HIV-1). The assay is described as follows: cell-based or functional assay.
The target in assay [15] is HIV-1 envelope glycoprotein (Env) of isolate MG RM-A-002, subtype A (HIV-1). The assay is described as follows: cell-based or functional assay.
Assay [16] addresses HIV-1 93UG077 Env (HIV-1). Nature of the assay: cell-based or functional assay.
The target in assay [17] is HIV-1 JR-CSF Env N332A (HIV-1 isolate JR-CSF) (UniProt P20871). Nature of the assay: cell-based or functional assay.
For assay [18], the target named is HIV-1 JR-CSF Env Q337A (HIV-1 isolate JR-CSF) (UniProt P20871). Nature of the assay: cell-based or functional assay.
A further assay has as its target HIV-1 JRFL Env (HIV-1). Nature of the assay: cell-based or functional assay.
Assay [19] concerns the target HIV-1 MGRM-D-001 Env (HIV-1). The assay is described as follows: cell-based or functional assay.
In assay [20] the target is HIV-1 envelope glycoprotein (Env) of isolate 92WR026, subtype A (HIV-1). The assay is described as follows: cell-based or functional assay.
In assay [21] the target is JR-FL GP120 ΔV3 (HIV-1 JR-FL). The assay is described as follows: ELISA, antigen-coated wells, mAb titrated; EC50 by nonlinear regression.
In assay [22] the target is HIV-1 MGRM-AG-005 envelope glycoprotein (Env) on pseudovirus (HIV-1). Nature of the assay: cell-based or functional assay.
For assay [23], the target named is HIV-1 MGRM-C-028 envelope glycoprotein (Env) on pseudovirus (HIV-1). Nature of the assay: cell-based or functional assay.
The target of assay [24] is HIV-1 JRFL envelope glycoprotein (Env) on pseudovirus (HIV-1). Nature of the assay: cell-based or functional assay.
Assay [25] concerns the target HIV-1 NL43 envelope glycoprotein (Env) on pseudovirus (HIV-1). The assay is described as follows: cell-based or functional assay.
Assay [26] deals with HIV-1 MGRM-A-010 envelope glycoprotein (Env) on pseudovirus (HIV-1). The assay is described as follows: cell-based or functional assay.
Assay [27] addresses HIV-1 93UG077 envelope glycoprotein (Env) on pseudovirus (HIV-1). The assay is described as follows: cell-based or functional assay.
For assay [28], the target named is HIV-1 92TH021 envelope glycoprotein (Env) on pseudovirus (HIV-1). The assay is described as follows: cell-based or functional assay.
The target in assay [29] is HIV-1 APV13 envelope glycoprotein (Env) on pseudovirus (HIV-1). The assay is described as follows: cell-based or functional assay.
Assay [30] deals with HIV-1 94UG103 envelope glycoprotein (Env) on pseudovirus (HIV-1). Nature of the assay: cell-based or functional assay.
Assay [31] addresses HIV-1 JRCSF envelope glycoprotein (Env) on pseudovirus (HIV-1) (UniProt P20871). The assay is described as follows: cell-based or functional assay.
The target in assay [32] is HIV-1 MGRM-C-026 envelope glycoprotein (Env) on pseudovirus (HIV-1). Nature of the assay: cell-based or functional assay.
Assay [33] concerns the target HIV-1 93IN905 envelope glycoprotein (Env) on pseudovirus (HIV-1). Nature of the assay: cell-based or functional assay.
Assay [34] deals with HIV-1 APV6 envelope glycoprotein (Env) on pseudovirus (HIV-1). Nature of the assay: cell-based or functional assay.

Chain of PGT-143 (4980_N08) (antibody) (VH): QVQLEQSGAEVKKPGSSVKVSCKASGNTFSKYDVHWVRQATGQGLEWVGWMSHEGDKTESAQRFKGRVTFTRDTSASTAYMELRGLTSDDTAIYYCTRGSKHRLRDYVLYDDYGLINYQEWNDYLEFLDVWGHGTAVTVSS
Chain of PGT-143 (4980_N08) (antibody) (VL): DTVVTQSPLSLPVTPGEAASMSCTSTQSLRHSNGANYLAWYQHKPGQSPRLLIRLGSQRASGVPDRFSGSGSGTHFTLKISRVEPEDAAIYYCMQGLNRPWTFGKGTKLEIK
Chain of PGT-142 (4995_E20) (antibody) (VH): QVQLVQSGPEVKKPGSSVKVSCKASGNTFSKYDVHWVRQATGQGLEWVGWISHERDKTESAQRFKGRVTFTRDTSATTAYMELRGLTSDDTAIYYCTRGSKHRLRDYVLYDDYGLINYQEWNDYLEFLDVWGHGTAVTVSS
Chain of PGT-142 (4995_E20) (antibody) (VL): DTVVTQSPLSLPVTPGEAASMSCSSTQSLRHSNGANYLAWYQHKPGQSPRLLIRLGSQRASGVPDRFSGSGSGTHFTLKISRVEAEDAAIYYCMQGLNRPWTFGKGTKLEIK
Chain of 1443_C16 (PG16) (TCN-116) (antibody) (VH): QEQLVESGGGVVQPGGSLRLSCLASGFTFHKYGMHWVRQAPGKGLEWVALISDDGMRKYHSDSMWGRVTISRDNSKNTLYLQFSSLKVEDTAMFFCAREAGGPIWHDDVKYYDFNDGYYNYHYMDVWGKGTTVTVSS
Chain of 1443_C16 (PG16) (TCN-116) (antibody) (VL): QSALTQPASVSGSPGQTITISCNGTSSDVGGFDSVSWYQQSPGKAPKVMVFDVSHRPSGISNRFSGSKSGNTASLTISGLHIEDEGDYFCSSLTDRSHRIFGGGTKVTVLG
Chain of PGT-144 (4970_K22) (antibody) (VH): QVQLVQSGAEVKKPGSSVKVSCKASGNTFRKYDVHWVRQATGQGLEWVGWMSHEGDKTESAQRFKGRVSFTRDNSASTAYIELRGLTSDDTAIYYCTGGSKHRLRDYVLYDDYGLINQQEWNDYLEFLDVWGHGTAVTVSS
Chain of PGT-144 (4970_K22) (antibody) (VL): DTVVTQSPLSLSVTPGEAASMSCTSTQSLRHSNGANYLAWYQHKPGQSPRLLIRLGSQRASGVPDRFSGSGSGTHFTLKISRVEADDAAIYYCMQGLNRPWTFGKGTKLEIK
Chain of PGT-141 (4964_G22; 4993_K13) (antibody) (VH): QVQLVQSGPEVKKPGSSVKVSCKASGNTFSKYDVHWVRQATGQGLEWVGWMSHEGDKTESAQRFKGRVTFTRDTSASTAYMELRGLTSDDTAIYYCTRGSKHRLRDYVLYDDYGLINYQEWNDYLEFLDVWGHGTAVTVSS
Chain of 5345_I01 (PGT-137) (antibody) (VH): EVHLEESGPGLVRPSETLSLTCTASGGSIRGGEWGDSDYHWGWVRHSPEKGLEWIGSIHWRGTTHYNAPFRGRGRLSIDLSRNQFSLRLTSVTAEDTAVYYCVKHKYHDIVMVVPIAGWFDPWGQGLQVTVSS
Chain of 5345_I01 (PGT-137) (antibody) (VL): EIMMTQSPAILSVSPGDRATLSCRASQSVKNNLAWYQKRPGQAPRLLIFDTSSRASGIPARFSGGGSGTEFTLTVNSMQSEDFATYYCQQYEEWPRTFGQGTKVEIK
Chain of 5329_C19 (PGT-136) (antibody) (VH): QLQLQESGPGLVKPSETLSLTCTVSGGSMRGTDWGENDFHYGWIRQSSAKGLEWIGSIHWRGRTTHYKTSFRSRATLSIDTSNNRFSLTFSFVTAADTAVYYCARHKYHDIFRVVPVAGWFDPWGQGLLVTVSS
Chain of 5329_C19 (PGT-136) (antibody) (VL): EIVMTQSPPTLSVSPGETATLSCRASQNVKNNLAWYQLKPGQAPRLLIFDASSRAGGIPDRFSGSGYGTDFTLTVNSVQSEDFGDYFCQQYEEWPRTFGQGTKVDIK

Usually IC50 stands for the concentration at which inhibition is half-maximal. On to b12 (antibody), for which the IC90 (neutralization of pseudovirus) in assay [1], in assay [3], in [4], in assay [5], in assay [6] and in assay [7] was more than 50 µg/mL throughout. This substance also had an IC50 in [2] of more than 50 µg/mL.
Turning to 1443_C16 (PG16) (TCN-116) (antibody), the IC90 (neutralization of pseudovirus) in [1] was more than 50 µg/mL; in [3] it was more than 50 µg/mL; in assay [4], 0.207 µg/mL; in [5], more than 50 µg/mL; in assay [6] it was more than 50 µg/mL; in assay [7] it was more than 50 µg/mL. For the same substance, the IC50, Neutralizing Antibody Assay, Virus/Ab Incubation 1 hour is 0.114 µg/mL in assay [8], less than 0.0025 µg/mL in [9] and less than 0.0025 µg/mL in [10]. Moreover, the IC50, Neutralizing Antibody Assay, Virus/Ab Incubation 18 hour in assay [8] was 0.106 µg/mL; in [9], less than 0.0025 µg/mL; in [10], 4.99 µg/mL.
As to 4E10 (antibody), the IC90 (neutralization of pseudovirus) in assay [1] is more than 50 µg/mL; in assay [3], more than 50 µg/mL; in [4], more than 50 µg/mL; in assay [5] it was 23.7 µg/mL; in assay [6] it was more than 50 µg/mL; in assay [7], more than 50 µg/mL.
Turning to 2F5 (antibody), the IC90 (neutralization of pseudovirus) in assay [1] is more than 50 µg/mL; in assay [3], more than 50 µg/mL; in [5], 34.4 µg/mL; in assay [6], 33.4 µg/mL; in assay [7], more than 50 µg/mL. In assay [2], this substance returned a half-inhibitory concentration (IC50) of 4.57 µg/mL.
Regarding 5141_B17 (PGT-126) (antibody), the IC50, pseudovirus neutralization was 1.35 µg/mL in assay [11]; 0.005 µg/mL in assay [13]; 0.014 µg/mL in assay [14]; 0.015 µg/mL in [15]; 0.0256 µg/mL in assay [16]; 0.014 µg/mL in the assay with HIV-1 JRFL Env (HIV-1). Also, the IC50, pseudovirus neutralization was 0.0639 µg/mL in assay [19] and 0.008 µg/mL in assay [20]. The substance further came in with an IC50 (µg/mL), pseudovirus neutralization in [12] of more than 50 µg/mL. Also, the Fold IC50 increase relative to wild-type in [17] worked out at 181 fold; in assay [18], 0.4 fold.
Broadly, the EC50 is the midpoint of the concentration-response curve. The low end stands for higher potency in that assay, the high end for lower potency in that assay. The substance 4838_L06 (PGT-121) (antibody) registered an EC50 in [21] of more than 10 µg/mL.
Turning to 1495_C14 (PGC14) (antibody), the IC50, Neutralizing Antibody Assay, Virus/Ab Incubation 1 hour in assay [8] was more than 50 µg/mL; in assay [9], more than 50 µg/mL; in assay [10], 0.35 µg/mL. Moreover, the IC50, Neutralizing Antibody Assay, Virus/Ab Incubation 18 hour is 13.4 µg/mL in assay [8], more than 50 µg/mL in [9] and 0.15 µg/mL in [10]. In assay [2], this substance had an IC50 of 6 µg/mL.
Regarding 5345_I01 (PGT-137) (antibody), in assay [21], the EC50 amounted to 0.1 µg/mL.
Take PGT-141 (4964_G22; 4993_K13) (antibody): the IC50, pseudovirus neutralization was 0.392 µg/mL in assay [22]; 2.35 µg/mL in assay [23]; more than 10 µg/mL in assay [24]; 0.856 µg/mL in [25]; 0.0563 µg/mL in [26]; more than 10 µg/mL in assay [27]. Also, the IC50, pseudovirus neutralization is 0.0019 µg/mL in [28]; more than 10 µg/mL in [29]; more than 10 µg/mL in assay [30]; 0.0047 µg/mL in assay [31]; more than 10 µg/mL in assay [32]; 0.0016 µg/mL in assay [33]. Further, the IC50, pseudovirus neutralization in assay [34] was 5.08 µg/mL.
As to 5329_C19 (PGT-136) (antibody), the EC50 in [21] was 0.1 µg/mL.
In the case of 2G12 (antibody), the IC90 (neutralization of pseudovirus) was more than 50 µg/mL in assay [1]; more than 50 µg/mL in assay [3]; more than 50 µg/mL in assay [4]; 7.57 µg/mL in assay [5]; more than 50 µg/mL in assay [6]; 24.1 µg/mL in assay [7]. The same substance returned an IC50 in [2] of more than 50 µg/mL.
For the substance PGT-144 (4970_K22) (antibody), the IC50, pseudovirus neutralization was more than 10 µg/mL in [22]; more than 10 µg/mL in [23]; more than 10 µg/mL in assay [24]; more than 10 µg/mL in assay [25]; 4.02 µg/mL in [26]; more than 10 µg/mL in [27]. Further, the IC50, pseudovirus neutralization is 0.0934 µg/mL in assay [28]; more than 10 µg/mL in [29]; more than 10 µg/mL in assay [30]; 0.128 µg/mL in [31]; more than 10 µg/mL in [32]; 0.158 µg/mL in assay [33]. In assay [34], this substance registered an IC50, pseudovirus neutralization of more than 10 µg/mL.
For PGT-142 (4995_E20) (antibody), the IC50, pseudovirus neutralization in assay [22] is 0.22 µg/mL; in assay [23] it was 1.23 µg/mL; in assay [24], more than 10 µg/mL; in assay [25] it was 0.712 µg/mL; in assay [26], 0.0578 µg/mL; in [27], more than 10 µg/mL. Further, the IC50, pseudovirus neutralization in assay [28] is 0.0022 µg/mL; in assay [29] it was more than 10 µg/mL; in assay [30], more than 10 µg/mL; in assay [31], 0.0085 µg/mL; in [32] it was more than 10 µg/mL; in assay [33], 0.0017 µg/mL. The IC50, pseudovirus neutralization in assay [34] amounted to 5.42 µg/mL.
With PGT-143 (4980_N08) (antibody), the IC50, pseudovirus neutralization in assay [22] was 0.244 µg/mL; in [23], 1.82 µg/mL; in assay [24] it was more than 10 µg/mL; in assay [25], 0.585 µg/mL; in [26] it was 0.0657 µg/mL; in assay [27] it was more than 10 µg/mL. In addition, the IC50, pseudovirus neutralization in [28] was 0.0028 µg/mL; in assay [29] it was more than 10 µg/mL; in assay [30], more than 10 µg/mL; in [31], 0.0064 µg/mL; in [32] it was more than 10 µg/mL; in [33] it was 0.0021 µg/mL. Moreover, the IC50, pseudovirus neutralization in assay [34] is 4.43 µg/mL.
In the case of 4877_D15 (PGT-122) (antibody), the IC50, pseudovirus neutralization was more than 10 µg/mL in assay [11]; 0.018 µg/mL in assay [13]; 0.026 µg/mL in [14]; 0.017 µg/mL in assay [15]; 0.191 µg/mL in assay [16]; 0.0471 µg/mL with HIV-1 JRFL Env (HIV-1). The IC50, pseudovirus neutralization in [19] came to 0.867 µg/mL; in assay [20] it was 0.036 µg/mL. The same substance had an IC50 (µg/mL), pseudovirus neutralization in assay [12] of 0.195 µg/mL.
With 1496_C09 (PG9) (TCN-109) (antibody), the IC50, Neutralizing Antibody Assay, Virus/Ab Incubation 1 hour in [8] is 24.9 µg/mL; in assay [9], less than 0.0025 µg/mL; in [10], 0.294 µg/mL. Moreover, the results for the IC50, Neutralizing Antibody Assay, Virus/Ab Incubation 18 hour in assay [8], in assay [9] and in [10] were 2.11 µg/mL, less than 0.0025 µg/mL and 38 µg/mL, respectively. This substance also came in with an IC50 in assay [2] of 0.56 µg/mL. The IC90 (neutralization of pseudovirus) in assay [4] stood at 0.866 µg/mL.
